A short description of the data set: amyloid nucleation score (Sup35N fusion, yeast selection) (log enrichment); library NNK2; higher = more nucleation; inactive = no reads after selection. The method in brief:
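Sup35N was fused to peptides of 20 random codons and expressed in psi-negative yeast, which were induced with 100 μM copper sulfate for 24 hours and then grown on medium lacking adenine and uracil for 7 days at 30°C. Plasmid inserts from input and output were sequenced on Illumina. The nucleation score is the DiMSum log enrichment of output over input reads, centred on the mode score of non-aggregating sequences. Sequences with under 100 input reads were left out, and random libraries had three technical output replicates.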

± gives the uncertainty stated by the source.

As for LRWRSCGNELDFKLNGLDFE, the amyloid nucleation score is 0.586 ± 0.74.

The substance FVSFSSLTKTLWYRRRRMVR registered an amyloid nucleation score of -1.06 ± 1.1.

As to LRCSESCNLMNKYGWRRNQA, the amyloid nucleation score worked out at 3.65 ± 0.081.

GFSWDNESFLCELKMGCLTG showed an amyloid nucleation score of -0.646 ± 0.31.

Regarding KRRSLGLLISLVTMGDK, the amyloid nucleation score came to 0.917 ± 0.31.

As for KILRVKRQGRGSRNR, the amyloid nucleation score is -0.055 ± 0.55.

Substance TVGIAKKNMVR had an amyloid nucleation score of 0.503 ± 0.43.

MMFNSLCSYWTTDYFATPDL had an amyloid nucleation score of 6.778 ± 0.062.

In turn, LYSESIVLFAYGFNGDGGLY displayed an amyloid nucleation score of -0.67 ± 0.29.

In the case of SMQFLCYKKLC, the amyloid nucleation score was -0.565 ± 1.1.

With FYMTYWISPMVIQWVFTDYA, the amyloid nucleation score came to 5.571 ± 0.034.

LLYTSWLV gave an amyloid nucleation score of 0.272 ± 0.41.

STWPCNQPSYVSV gave an amyloid nucleation score of 0.204 ± 0.28.

Substance PYSVTEHICGIWLVWCIVGS registered an amyloid nucleation score of -0.418 ± 1.1.

With SSSEVSFSCYVVDVQLS, the amyloid nucleation score is -0.603 ± 0.49.

DRPALCSLCSETSVVNTLHL: the amyloid nucleation score worked out at 5.74 ± 0.064.

In turn, TRRGF showed an amyloid nucleation score of -0.357 ± 0.3.

The substance DHNGVKSTSHKSSFFMSTGR came in with an amyloid nucleation score of 0.056 ± 0.39.

Substance VYLSSLDSRMRLSTCFRE came in with an amyloid nucleation score of -0.19 ± 0.35.

The substance TMYLFGYEV registered an amyloid nucleation score of 1.31 ± 0.35.

As for VFIVL, the amyloid nucleation score worked out at 1.65 ± 0.41.

For FSVRLISFRSSLLLMSQDLL, the amyloid nucleation score turned out to be 0.138 ± 1.1.

Regarding MNGVLFMCFIH, the amyloid nucleation score was 3.86 ± 0.085.

NMTVFT: the amyloid nucleation score was -0.202 ± 0.22.

As to SGSKGRASVNIIDR, the amyloid nucleation score worked out at 0.131 ± 1.

The substance HPDDTMKFSSRTHITTQTDR registered an amyloid nucleation score of 0.908 ± 0.52.

In the case of GHVQSWGCVVLHEFSSISPE, the amyloid nucleation score turned out to be 5.488 ± 0.05.

Consider RLRGFIPLCTYIFPNFRGLL, for which the amyloid nucleation score was -0.718 ± 0.65.

Regarding FLYPRYLVVMKHVLAGRCVA, the amyloid nucleation score result is “inactive”.

For the substance NSAKKLRRPGATCPGQDGYT, the amyloid nucleation score worked out at 0.864 ± 0.41.

RTALLP displayed an amyloid nucleation score of 1.58 ± 0.52.

As to TLSVGVQL, the amyloid nucleation score was -0.624 ± 0.63.

Turning to LTVTW, the amyloid nucleation score came to 1.2 ± 0.21.

Substance LWRILVALFAISILRTLVMQ had an amyloid nucleation score of 1.63 ± 0.2.

RRIGFDAPDVSRYVALLYWD came in with an amyloid nucleation score of -0.106 ± 0.32.

In turn, QSYMSGKYVVLVQRGEVFSF gave an amyloid nucleation score of -1.21 ± 0.49.

QRPAGYHQTLSVARQRLRPD had an amyloid nucleation score of -0.73 ± 0.76.

The substance VVHSFEWNLRRLSTWWRWGF registered an amyloid nucleation score of 0.217 ± 0.31.

The substance SNSLQFYDLKSCDWGVWRCE returned an amyloid nucleation score of 4.768 ± 0.038.

In turn, SGCWIGRFLSSGVSMKVHVS returned an amyloid nucleation score of 1.23 ± 0.4.

For the substance EYSMHTWCRYKEDFSRGASG, the amyloid nucleation score came to 2.98 ± 0.096.

Substance ITCHGVVFSWLTRELLYTGL yielded an amyloid nucleation score of -0.702 ± 0.45.

In turn, RAMHQDSVFVRWVEPPYCWC showed an amyloid nucleation score of -0.024 ± 1.

As for GTRSGSSDV, the amyloid nucleation score is 0.31 ± 0.5.

In turn, SAGYKLDSCTVYWGLACDSR displayed an amyloid nucleation score of -0.366 ± 0.79.

With LLLCGNSRGQDEASSIVFTM, the amyloid nucleation score stood at 0.726 ± 0.66.

With LMHFGMKEEDYWKPCSICIS, the amyloid nucleation score result is “inactive”.

In turn, QVLVWQHMGRSTVLMLY showed an amyloid nucleation score of -0.58 ± 0.55.

For ENDMLTYYSLLFYWIKIVSY, the amyloid nucleation score result is “inactive”.

The substance VHFASPRRACRFIRRRYTTH had an amyloid nucleation score of 3.77 ± 0.11.

For the substance VGDQF, the amyloid nucleation score entry was “inactive”.

VSQVMLSK: the amyloid nucleation score came to 0.626 ± 0.24.

Take LMLGSWQDKMPSLLWLDLCV: the amyloid nucleation score amounted to 0.86 ± 0.52.

LAYLSLICFCVDSPTQVGLM returned an amyloid nucleation score of 10.11 ± 0.038.

As to IDLFFAYSHRV, the amyloid nucleation score was found to be 4.501 ± 0.044.

As for SQHSVARIANGLLTSGTMVL, the amyloid nucleation score was 0.875 ± 0.36.

For CAINPKVKRSFLVI, the amyloid nucleation score is -1.73 ± 1.1.

For KVYATVDFDLLGQAPTSAMN, the amyloid nucleation score was 4.83 ± 0.091.

Turning to SSGRGIRLTLTVSIDRKKMG, the amyloid nucleation score is -0.391 ± 0.4.

ICRPGYGY: the amyloid nucleation score result was “inactive”.

In turn, VDQCPYRFKFRVSYMMVFYM yielded an amyloid nucleation score of 5.67 ± 0.086.

As to PRFIQGYILRNLCARMLKYS, the amyloid nucleation score was -0.368 ± 0.39.

The substance FGYLVIKFVTYVRRRTNTYN registered an amyloid nucleation score of -0.113 ± 0.56.

On to DRARRVVIIWVYLIDRVNVR, for which the amyloid nucleation score worked out at 0.004 ± 1.1.

MLSRNNCNALWYSIFS: the amyloid nucleation score is -1.5 ± 1.

In turn, VISGGFMF displayed an amyloid nucleation score of 4.63 ± 0.069.

Regarding VLYQGALRYGNVRRGHLIRF, the amyloid nucleation score came out at 0.105 ± 1.1.

Take LWDMIRNGC: the amyloid nucleation score was -0.769 ± 0.45.

ARKYLRCGSACVKVEYF gave an amyloid nucleation score of 3.51 ± 0.047.

Consider LWSLLLWLPTYRYRLYLFGA, for which the amyloid nucleation score was -0.113 ± 0.79.

For GPTRSYRLAASGAGEGCKTW, the amyloid nucleation score came to 2.09 ± 0.1.

Substance AVMAISMRS gave an amyloid nucleation score of 0.514 ± 0.56.

As for FNLSGWLMSSIRNNFLVPG, the amyloid nucleation score is -1.01 ± 0.61.

For the substance LFDSCSDSRMFNWMGPSNGQ, the amyloid nucleation score entry is “inactive”.

Substance PFSCITRLQ came in with an amyloid nucleation score of 2.48 ± 0.1.

In turn, LQCRLIRVMYVMHCDVWVV showed an amyloid nucleation score of -0.087 ± 0.24.

With DTRFEVNAFTIGNRYATNGS, the amyloid nucleation score is -0.869 ± 0.41.

The substance CRKCFT gave an amyloid nucleation score of 0.717 ± 0.4.

As for RRGKFEAANSWGD, the amyloid nucleation score was 0.792 ± 0.53.

For the substance AIIPRMLKYRERGKPTKRDT, the amyloid nucleation score was found to be 0.291 ± 0.24.

With SYLHNSN, the amyloid nucleation score is -1.26 ± 0.78.

With QWMVLQSDRGAEMIARA, the amyloid nucleation score was 1.29 ± 0.2.

As to IKNLRNQGK, the amyloid nucleation score was -0.745 ± 0.61.

In the case of KDGLTISRIQITLIKRTLVV, the amyloid nucleation score was 0.035 ± 0.74.

Take FIELMCWRSH: the amyloid nucleation score is -0.315 ± 0.45.

As to SSLCIRSAL, the amyloid nucleation score is -0.092 ± 0.63.

Consider AIWVYRPLVIQGTFGIRPA, for which the amyloid nucleation score was determined as 6.15 ± 0.08.

LCIEMD returned an amyloid nucleation score of 0.566 ± 0.38.

Regarding RISIPS, the amyloid nucleation score entry is “inactive”.

Turning to HGGFGYR, the amyloid nucleation score was -0.336 ± 0.49.

In turn, VFWNIAFNSYMQRSCYIVVF registered an amyloid nucleation score of 2.12 ± 0.14.

TLNLDFFELSMPGDFSDLVS: the amyloid nucleation score entry is “inactive”.

FFFVWESNPSIWDGTFTVEV yielded an amyloid nucleation score of 0.21 ± 0.46.

For the substance LTIDQHKVCLPN, the amyloid nucleation score result is “inactive”.

With IRDRPHWAGGHLGWPYMWS, the amyloid nucleation score worked out at 4.1 ± 0.1.

In turn, YTCCLL yielded an amyloid nucleation score of 5.914 ± 0.035.

Consider LASMMPSKIPN, for which the amyloid nucleation score result was “inactive”.

RFNMMKSKQMELSN registered an amyloid nucleation score of -0.504 ± 0.46.

As to VCNFLYNGLEFVNLECFWR, the amyloid nucleation score entry is “inactive”.

KSFSCVCPWFGH showed an amyloid nucleation score of 10.32 ± 0.031.

In turn, AYKCFGVLCFRRNRSGKEGL returned an amyloid nucleation score of -0.318 ± 0.76.

Turning to VVEGGRFLVDSRWKVVSRGC, the amyloid nucleation score is -0.719 ± 0.38.

Regarding AIQLCLWSKRSQGRWFTLPV, the amyloid nucleation score stood at 0.82 ± 0.47.

In the case of SRYGWMNRWKQPVQVVNPGF, the amyloid nucleation score came out at 0.031 ± 0.38.

With VRMEVIFYC, the amyloid nucleation score amounted to 2.54 ± 0.2.

Turning to VAVDLRGIDGNIYAFQAKIE, the amyloid nucleation score is 2.97 ± 0.068.

As for HCGFDQVLEGLTLR, the amyloid nucleation score stood at 0.097 ± 0.42.

Regarding NVMSDYTFANTSITSCCY, the amyloid nucleation score was -1.26 ± 0.64.

In the case of RYMGGIWKSIRTS, the amyloid nucleation score turned out to be 0.061 ± 0.21.

VDLYQVWSSCPVFVLWGYSC yielded an amyloid nucleation score of 0.072 ± 0.79.

SKYKRLYVGTNDIIQLDWSN registered an amyloid nucleation score of 3.16 ± 0.068.

Regarding SHCPVRYMVGIS, the amyloid nucleation score was -1.02 ± 0.78.

Regarding CLCQIHSRSYPFIL, the amyloid nucleation score came to 0.148 ± 1.

NEIARILEVRIGVEGYGGIF: the amyloid nucleation score is -0.722 ± 0.3.

LELKFFHHPSPCFYNITQSA: the amyloid nucleation score is 3.76 ± 0.092.

As to SRAKNLHSFKSNMCDAFSYN, the amyloid nucleation score entry is “inactive”.

Regarding QGRLSPY, the amyloid nucleation score entry was “inactive”.

Take STWKNDHTHSCASWAKVCIT: the amyloid nucleation score is -0.138 ± 0.34.

Substance FMKSNWIGTT yielded an amyloid nucleation score of -0.909 ± 0.39.

With RMETTKPIRSSGTSITAPNG, the amyloid nucleation score is 1.53 ± 0.53.

Regarding SDGEISGEGY, the amyloid nucleation score is -0.368 ± 1.1.

The substance VQDAFVYFNAELRWYDILGQ gave an amyloid nucleation score of -0.201 ± 0.37.

Regarding SFFFPWCVTGLRVSHTTAKF, the amyloid nucleation score is -0.237 ± 0.63.

QHYLKPAMARQSLKGIFDQD returned an amyloid nucleation score of -0.595 ± 0.61.

As for GLESFGDYSVKIPLGDLFGP, the amyloid nucleation score is -0.025 ± 0.3.

In turn, SIKCEFELIDLTSQAPCEGQ came in with an amyloid nucleation score of 0.611 ± 0.5.

In the case of YVCPIHLSDYEVTLECKSHG, the amyloid nucleation score came to 2.17 ± 0.18.

For NKGSPCISCFVENDLYYLKY, the amyloid nucleation score was -0.707 ± 0.42.

CFGIILVQGYMHA gave an amyloid nucleation score of 3.6 ± 0.052.

The substance DRMLCWDLGVIKNVLRTRVL registered an amyloid nucleation score of -0.354 ± 0.55.

For SGHISYG, the amyloid nucleation score stood at 0.192 ± 0.56.

With FKGSWHAFECEAYEYAWV, the amyloid nucleation score is -0.018 ± 1.1.

Substance SGSMKCPSYRYYCPQNIFCT showed an amyloid nucleation score of 6.43 ± 0.08.

Regarding GKDGKLTSMAHSYHDYVMRR, the amyloid nucleation score was 0.129 ± 0.26.

For FPCAMYTEWHVAVTVSICYG, the amyloid nucleation score was -0.36 ± 0.76.

In the case of FFKGLSKSIQVGL, the amyloid nucleation score is -1.06 ± 0.56.

For KAGVKLSLGNCRYSTL, the amyloid nucleation score amounted to 0.527 ± 0.8.

As to ELWRYDINIERYKSTRSVYH, the amyloid nucleation score is 3.08 ± 0.055.

Regarding VTLQPFCSARSWLEMNVKFF, the amyloid nucleation score worked out at 4.44 ± 0.066.

ANGVSILDFRKHATFWWWET had an amyloid nucleation score of -0.103 ± 0.29.

In turn, YVSGGVKAFSFLSVCYLSPW gave an amyloid nucleation score of 7.586 ± 0.066.

Source of the values: the supplement of paper PMC12042874.
